From patent US20160290999A1 (SYSMEX, published 2016)
No end group written: not given here.

What was measured:
Human serum albumin [1] = molecular target: T1, Human serum albumin (human, UniProt P02768 25-609); experiment: Kd as classified from the fluorescence titration; told in Example 4 of the peptides of samples F and G
T1 construct: Purchased protein used in solution; In the hydrothermal experiments it is heat-aggregated into an insoluble precipitate; also called HSA

Human serum albumin [2] = molecular target: T1, Human serum albumin; experiment: fluorescence titration of TMR-labelled peptide against HSA, Hill fit (as in Example 1)
Protocol: (§1) Each of the resulting mixtures was subjected to measurement with a spectrophotofluorometer [product name: F-7000, manufactured by Hitachi High-Technologies Corporation] and the fluorescence intensity with an excitation wavelength of 540 nm and a fluorescence wavelength of 580 nm (hereinafter, referred to as “fluorescence intensity A”) was measured.

Human serum albumin [3] = molecular target: T1, Human serum albumin; experiment: fluorescence titration of TMR-labelled peptide against HSA, Hill fit (Example 2, FIG. 6)
Protocol: as §1

LVAASQAALGL (also: TMR label, site not given here) [TMR-labeled HSA 599-609 fragment]
Kd (Human serum albumin [1]): ≥ 500 µM

B1: TMR-labeled ACTH (1-39) (peptide)
peptide: SYSMEHFRWGKPVGKKRRPVKVYPNAGENESAEAFPLEF
modifications: also: TMR label, site not given here
notes: The free text was followed; also called Adrenocorticotropic hormone (ACTH) (1-39)
Kd (Human serum albumin [2]): 520 µM

B2: TMR-labeled SA21 (peptide)
peptide: DDEWLCGWRPLCIDEILR
modifications: cysteine pairing not given here; also: TMR label, site not given here
notes: The free text was followed; also called TMR-SA21; TMR-labeled SA1
Kd (Human serum albumin [3]): < 500 µM
